{"source": "paper PMC4234702", "about": "(Cellular and molecular life sciences : CMLS, 2014)", "proteins": {"B1": {"name": "cell-free expressed Δ7 DgkA (thermostabilized mutant of diacylglycerol kinase) (enzyme, Escherichia coli)", "chain": "ANNTTGFTRIIKAAGYSWKGLRAAWINEAAFRQEGVAVLLCVVIAAWLDVDAVTRVLLISSVMLVMIVELLNSAIEAVVDRIGSEYHELSGRAKDLGSAAVLIAIIDAVITWAILLWSHFG"}}, "target": "the molecule itself", "experiment": "crystal structure", "data": [{"protein": "B1", "values": [{"measurement": "stoichiometry N", "result": 3}]}]}
